# Residue numbers refer to the chain shown, from its start.
# B1: humanized antibody No. 141 (antibody, human IgG2)
# heavy: QVQLVQSGSELKKPGASVKVSCKASGYTFTDYSMHWVRQAPGQGLEWMGWINTETGEPTYADDFKGRFVFSLDTSVSTAYLQISSLKAEDTAVYYCARIPLYYYGSRYWYFDVWGQGTTVTVSSASTKGPSVFPLAPSSRSTSESTAALGCLVKDYFPEPVTVSWNSGALTSGVHTFPAVLQSSGLYSLSSVVTVPSSNFGTQTYTCNVDHKPSNTKVDKTVERKSCVECPPCPAPPAAAPSVFLFPPKPKDTLMISRTPEVTCVVVDVSHEDPEVQFNWYVDGVEVHNAKTKPREEQFNSTFRVVSVLTVVHQDWLNGKEYKCKVSNKGLPAPIEKTISKTKGQPREPQVYTLPPSREEMTKNQVSLTCLVKGFYPSDIAVEWESNGQPENNYKTTPPMLDSDGSFFLYSKLTVDKSRWQQGNVFSCSVMHEALHNHYTQKSLSLSPG
# light: DIQMTQSPSSLSASVGDRVTITCRASENIYRNLAWYQQKPGKAPKLLVYAATNLADGVPSRFSGSGSGTDYTLTISSLQPEDFATYYCQHFWGTPWTFGQGTKVEIKRTVAAPSVFIFPPSDEQLKSGTASVVCLLNNFYPREAKVQWKVDNALQSGNSQESVTEQDSKDSTYSLSSTLTLSKADYEKHKVYACEVTHQGLSSPVTKSFNRGEC
# notes: human Ig kappa; also called L1-4/HK1
# B2: humanized antibody No. 134 (antibody, human IgG2)
# heavy: B1 heavy with E46K, D62Q, D63G, K65T
# light: EIVMTQSPATLSVSPGERATLSCRASENIYRNLAWYQQKPGQSPRLLIYAATNLADGIPARFSGSGSGTEYTLTISSLQSEDFAVYYCQHFWGTPWTFGQGTKVEIKRTVAAPSVFIFPPSDEQLKSGTASVVCLLNNFYPREAKVQWKVDNALQSGNSQESVTEQDSKDSTYSLSSTLTLSKADYEKHKVYACEVTHQGLSSPVTKSFNRGEC
# notes: human Ig kappa; also called L2-4/HA2
# B3: humanized antibody No. 157 (antibody, human IgG2)
# heavy: B1 heavy with D62Q, D63G, K65T
# light: B1 light with K45Q, V48L
# notes: human Ig kappa; also called L1-6/HA1
# B4: humanized antibody No. 142 (antibody, human IgG2)
# heavy: B1 heavy with E46K
# light: B1 light
# notes: human Ig kappa; also called L1-4/HK2
# B5: humanized antibody No. 154 (antibody, human IgG2)
# heavy: B1 heavy
# light: B1 light with V48L, P80S
# notes: human Ig kappa; also called L1-5/HK1
# B6: humanized antibody No. 155 (antibody, human IgG2)
# heavy: B1 heavy with V2I, E46K
# light: B1 light with V48L, P80S
# notes: human Ig kappa; also called L1-5/HK4
# B7: humanized antibody No. 153 (antibody, human IgG2)
# heavy: B1 heavy with E46K, D62Q, D63G, K65T
# light: B1 light with V48L, P80S
# notes: human Ig kappa; also called L1-5/HA2
# B8: humanized antibody No. 143 (antibody, human IgG2)
# heavy: B1 heavy with V2I, E46K
# light: B1 light
# notes: human Ig kappa; also called L1-4/HK4
# B9: humanized antibody No. 152 (antibody, human IgG2)
# heavy: B1 heavy with D62Q, D63G, K65T
# light: B1 light with V48L, P80S
# notes: human Ig kappa; also called L1-5/HA1
# B10: humanized antibody No. 158 (antibody, human IgG2)
# heavy: B1 heavy with E46K, D62Q, D63G, K65T
# light: B1 light with K45Q, V48L
# notes: human Ig kappa; also called L1-6/HA2
# B11: humanized antibody No. 159 (antibody, human IgG2)
# heavy: B1 heavy with E46K
# light: B1 light with K45Q, V48L
# notes: human Ig kappa; also called L1-6/HK2
# B12: humanized antibody No. 132 (antibody, human IgG2)
# heavy: B1 heavy with V2I, E46K, D62Q, D63G, K65T
# light: B2 light
# notes: human Ig kappa; also called L2-4/HA4
# B13: humanized antibody No. 160 (antibody, human IgG2)
# heavy: B1 heavy with V2I, E46K
# light: B1 light with K45Q, V48L
# notes: human Ig kappa; also called L1-6/HK4
# B14: humanized antibody No. 145 (antibody, human IgG2)
# heavy: B1 heavy with E46K
# light: B1 light with V48L, P80S
# notes: human Ig kappa; also called L1-5/HK2
# B15: humanized antibody No. 144 (antibody, human IgG2)
# heavy: B1 heavy
# light: B1 light with K45Q, V48L
# notes: human Ig kappa; also called L1-6/HK1
# B16: humanized antibody No. 156 (antibody, human IgG2)
# heavy: B1 heavy with V2I, E46K, D62Q, D63G, K65T
# light: B1 light with K45Q, V48L
# notes: human Ig kappa; also called L1-6/HA4
# B17: humanized antibody No. 133 (antibody, human IgG2)
# heavy: B1 heavy with D62Q, D63G, K65T
# light: B2 light
# notes: human Ig kappa; also called L2-4/HA1
# B18: humanized antibody No. 151 (antibody, human IgG2)
# heavy: B1 heavy with V2I, E46K, D62Q, D63G, K65T
# light: B1 light with V48L, P80S
# notes: human Ig kappa; also called L1-5/HA4
# B19: humanized antibody No. 135 (antibody, human IgG2)
# heavy: B1 heavy
# light: B2 light
# notes: human Ig kappa; also called L2-4/HK1
# Biological target: T1, human EphA2 extracellular region-SEAP-His protein (human, UniProt P29317 24-537)
# T1 construct: extracellular domain; also called hEphA2-SEAP-His
# T1 sequence (P29317 24-537): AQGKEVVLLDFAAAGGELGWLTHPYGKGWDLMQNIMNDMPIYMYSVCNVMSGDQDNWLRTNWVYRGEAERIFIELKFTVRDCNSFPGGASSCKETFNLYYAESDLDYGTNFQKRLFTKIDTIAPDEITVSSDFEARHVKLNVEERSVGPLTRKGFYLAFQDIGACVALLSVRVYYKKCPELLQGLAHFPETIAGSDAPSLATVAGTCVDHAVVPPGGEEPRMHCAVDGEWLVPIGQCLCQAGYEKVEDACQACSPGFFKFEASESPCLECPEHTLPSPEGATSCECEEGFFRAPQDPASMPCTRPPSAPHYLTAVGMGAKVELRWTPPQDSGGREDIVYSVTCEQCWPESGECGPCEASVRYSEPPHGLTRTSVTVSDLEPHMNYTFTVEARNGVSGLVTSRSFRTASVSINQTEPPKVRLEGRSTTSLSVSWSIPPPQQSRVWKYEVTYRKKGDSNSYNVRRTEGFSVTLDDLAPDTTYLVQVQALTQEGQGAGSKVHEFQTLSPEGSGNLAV
# Assay: ELISA
row,A450 as % of hEphA4-SEAP-His [%],Binder
1,5.2,B1
2,5,B2
3,6.3,B3
4,5.6,B4
5,6.2,B5
6,5.5,B6
7,6,B7
8,5.7,B8
9,5.8,B9
10,6.7,B10
11,5.4,B11
12,4.8,B12
13,6.1,B13
14,6.5,B14
15,5.6,B15
16,5.5,B16
17,4.7,B17
18,6.9,B18
19,5,B19

# Biological target: T2, human EphB6 extracellular region-SEAP-His protein (human, UniProt O15197 32-594)
# T2 construct: extracellular domain; also called hEphB6-SEAP-His
# T2 sequence (looked up): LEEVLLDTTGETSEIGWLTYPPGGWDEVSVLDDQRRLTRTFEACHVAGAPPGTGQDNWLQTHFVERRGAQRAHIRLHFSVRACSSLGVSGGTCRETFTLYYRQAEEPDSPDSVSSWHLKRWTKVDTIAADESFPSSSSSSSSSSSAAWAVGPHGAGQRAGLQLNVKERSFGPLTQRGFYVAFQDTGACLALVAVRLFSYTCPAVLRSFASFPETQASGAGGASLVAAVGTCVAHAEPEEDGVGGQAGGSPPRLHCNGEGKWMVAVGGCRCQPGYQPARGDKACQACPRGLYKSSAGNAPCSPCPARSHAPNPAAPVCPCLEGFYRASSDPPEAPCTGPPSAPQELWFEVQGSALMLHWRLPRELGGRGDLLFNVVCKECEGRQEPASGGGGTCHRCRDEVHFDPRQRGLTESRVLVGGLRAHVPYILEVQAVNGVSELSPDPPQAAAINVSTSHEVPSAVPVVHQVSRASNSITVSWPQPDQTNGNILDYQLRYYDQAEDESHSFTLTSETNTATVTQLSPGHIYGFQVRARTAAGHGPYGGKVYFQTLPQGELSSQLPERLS
# Assay: ELISA
row,A450 as % of hEphA4-SEAP-His [%],Binder
1,5.4,B1
2,5.2,B2
3,6.3,B3
4,5.6,B4
5,6.4,B5
6,5.6,B6
7,6.2,B7
8,5.6,B8
9,5.9,B9
10,6.3,B10
11,5.5,B11
12,4.7,B12
13,6.2,B13
14,6.6,B14
15,5.9,B15
16,5.7,B16
17,4.8,B17
18,7.1,B18
19,5.3,B19

# Biological target: T3, human EphB4 extracellular region-SEAP-His protein (human, UniProt P54760 16-539)
# T3 construct: extracellular domain; also called hEphB4-SEAP-His
# T3 sequence (looked up): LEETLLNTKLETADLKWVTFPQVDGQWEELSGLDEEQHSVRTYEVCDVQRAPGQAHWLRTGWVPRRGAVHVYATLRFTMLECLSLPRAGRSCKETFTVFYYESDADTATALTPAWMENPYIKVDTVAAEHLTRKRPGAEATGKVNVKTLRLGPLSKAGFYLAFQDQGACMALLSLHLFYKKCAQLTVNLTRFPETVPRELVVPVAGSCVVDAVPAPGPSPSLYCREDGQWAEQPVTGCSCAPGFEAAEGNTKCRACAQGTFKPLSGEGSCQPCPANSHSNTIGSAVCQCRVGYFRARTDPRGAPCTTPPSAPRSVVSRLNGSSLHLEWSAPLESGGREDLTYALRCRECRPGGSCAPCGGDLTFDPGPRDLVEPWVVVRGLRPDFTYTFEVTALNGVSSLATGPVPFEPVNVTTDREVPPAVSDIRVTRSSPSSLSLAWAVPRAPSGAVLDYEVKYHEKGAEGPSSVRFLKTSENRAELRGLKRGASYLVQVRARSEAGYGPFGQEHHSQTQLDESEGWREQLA
# Assay: ELISA
row,A450 as % of hEphA4-SEAP-His [%],Binder
1,5.4,B1
2,5.1,B2
3,6.5,B3
4,5.7,B4
5,6.4,B5
6,5.7,B6
7,6,B7
8,5.9,B8
9,5.9,B9
10,6.5,B10
11,5.4,B11
12,4.8,B12
13,6.3,B13
14,6.7,B14
15,5.7,B15
16,5.6,B16
17,4.9,B17
18,7.4,B18
19,5.1,B19

# Biological target: SEAP-His (UniProt P05187 23-511)
# Sequence (P05187 23-511): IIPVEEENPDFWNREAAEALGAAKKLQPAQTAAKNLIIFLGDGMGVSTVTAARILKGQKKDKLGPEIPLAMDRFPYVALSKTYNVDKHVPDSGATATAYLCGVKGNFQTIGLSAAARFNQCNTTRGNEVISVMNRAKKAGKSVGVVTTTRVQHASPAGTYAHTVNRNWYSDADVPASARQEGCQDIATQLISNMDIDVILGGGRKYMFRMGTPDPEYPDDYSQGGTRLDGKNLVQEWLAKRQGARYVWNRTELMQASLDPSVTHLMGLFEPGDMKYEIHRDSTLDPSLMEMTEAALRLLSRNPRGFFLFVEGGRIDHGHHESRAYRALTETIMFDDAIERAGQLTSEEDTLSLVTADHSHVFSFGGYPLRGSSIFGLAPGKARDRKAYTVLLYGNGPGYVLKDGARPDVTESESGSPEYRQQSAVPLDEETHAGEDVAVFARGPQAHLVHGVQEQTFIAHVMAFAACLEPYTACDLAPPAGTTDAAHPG
# Assay: ELISA
row,A450 as % of hEphA4-SEAP-His [%],Binder
1,5,B1
2,5.1,B2
3,6.1,B3
4,5.8,B4
5,6.3,B5
6,5.8,B6
7,5.9,B7
8,6.3,B8
9,5.4,B9
10,6.3,B10
11,5.3,B11
12,4.9,B12
13,6.3,B13
14,6.4,B14
15,5.7,B15
16,5.4,B16
17,4.7,B17
18,6.8,B18
19,5.3,B19

# From US20190077860A1 (EISAI R AND D MANAGEMENT, published 2019)
